# According to publication PMC6927032:
# Target: TglB (Pseudomonas syringae)
# Test: fluorescence polarisation
row,Substance,IC50 [µM]
1,TglA D40A (peptide),15
2,TglA E42A (peptide),10.5
3,TglA E45A (peptide),> 300
4,TglA F49A (peptide),4.2
5,TglA I41A (peptide),32
6,TglA I44A (peptide),24
7,TglA K47A (peptide),255
8,TglA S46A (peptide),11
9,TglA V43A (peptide),98
10,TglA V48A (peptide),113
11,WT TglA (peptide),8
